Measurements published in patent US7981423B2, “Rage fusion proteins” (Transtech Pharma, Inc., priority 2004, dated 2011).

How the values were obtained:
[1] = biological target: immobilized known RAGE ligands (HMG1B, CML, A beta); experiment: Saturation binding of TTP-4000 to immobilized known RAGE ligands; settings: fusion protein 0 to 360 nM; Graphpad Prizm; FIG. 15; figures not given
Description: The ligands are immobilized on a microtiter plate and incubated in the presence of increasing concentrations of fusion protein from 0 to 360 nM. The fusion protein-ligand interaction is detected using a polyclonal antibody conjugated with alkaline phosphatase that is specific for the IgG portion of the fusion chimera. […] HMG1B=Ampoterin, CML=Carboxymethyl Lysine, A beta=Amyloid beta 1-40.

APP transgenic mice = experiment: Mouse model of AD (APP transgenic mice); format: in vivo
Description: Experiments were performed to evaluate whether TTP-4000 could affect amyloid formation and cognitive dysfunction in a mouse model of AD. The experiments utilized transgenic mice expressing the human Swedish mutant amyloid precursor protein (APP) under the control of the PDGF-B chain promoter. Over time, these mice generate high levels of the RAGE ligand, amyloid beta (Aβ).
The APP mice (male) used in this experiment were designed by microinjection of the human APP gene (with the Swedish and London mutations) into mouse eggs under the control of the platelet-derived growth factor B (PDGF-B) chain gene promoter. The mice were generated on a C57BL/6 background and were developed by Molecular Therapeutics Inc. Animals were fed ad libituin and maintained by brother sister mating. The mice generated from this construct develop amyloid deposits starting at 6 months of age. Animals were aged for 6 months and then maintained for 90 days and sacrificed for amyloid quantification.
APP transgenic mice were administered vehicle or TTP4000 every other day [qod (i.p.)] for 90 days starting at 6 months of age. At the end of the experiment, animals were sacrificed and examined for AP plaque burden in the brain (i.e., plaque number). A 6-month control APP group was used to determine the baseline of amyloid deposits. In addition, at the end of the study, the animals were subjected to behavioral (Morris water maze) analysis. The investigators were blinded to the study compounds. Samples were given to the mice at 0.25 ml/mouse/every other day.
For histological examination, the animals were anesthetized with an intraperitoneal injection (IP) of sodium pentobarbital (50 mg/kg). The animals were transcardially perfused with 4° C., phosphate-buffered saline (PBS) followed by 4% paraformaldehyde. The brains were removed and placed in 4% paraformaldehyde over night. The brains were processed to paraffin and embedded. Ten serial 30-μm thick sections through the brain were obtained. Sections were subjected to primary antibody overnight at 4° C. (Aβ peptide antibody) in order to detect the amyloid deposits in the brain of the transgenic animals (Guo et al., J. Neurosci., 22:5900-5909 (2002)). Sections were washed in Tris-buffered saline (TBS) and secondary antibody was added and incubated for 1 hour at room temperature. After washing, the sections were incubated as instructed in the Vector ABC Elite kit (Vector Laboratories) and stained with […] (DAB). The reactions were stopped in water and cover-slipped after treatment with xylene. The amyloid area in each section was determined with a computer-assisted image analysis system, consisting of a Power Macintosh computer equipped with a Quick Capture frame grabber card, Hitachi CCD camera mounted on an Olympus microscope and camera stand. NIH Image Analysis Software, v. 1.55 was used. The images were captured and the total area of amyloid was determined over the ten sections. A single operator blinded to treatment status performed all measurements. Summing the amyloid volumes of the sections and dividing by the total number of sections was done to calculate the amyloid volume.
For quantitative analysis, an enzyme-linked immunosorbent assay (ELISA) was used to measure the levels of human total Aβ, Aβtotal and Aβ1-42 in the brains of APP transgenic mice (Biosource International., Camarillo, Calif.). Aβtotal and Aβ1-42 were extracted from mouse brains by guanidine hydrochloride and quantified as described by the manufacturer. […]

amyloid-beta (A-beta) = experiment: Competition of a RAGE ligand with immobilized amyloid-beta for binding to the fusion protein; settings: TTP-4000 initial solution diluted 1:10 or 1:30; RAGE ligand 10 μM FAC
Description: The fusion protein of the present invention may also be used to identify compounds having the ability to bind to RAGE.
Known RAGE ligands were coated onto the surface of Maxisorb plates at a concentration of 5 micrograms per well. Plates were incubated at 4° C. overnight. Following ligand incubation, plates were aspirated and a blocking buffer of 1% BSA in 50 mM imidizole buffer (pH 7.2) was added to the plates for 1 hour at room temperature. The plates were then aspirated and/or washed with wash buffer (20 mM Imidizole, 150 mM NaCl, 0.05% Tween-20, 5 mM CaCl2 and 5 mM MgCl2, pH 7.2). […] The fusion protein was added at increasing dilutions of the initial sample. The RAGE fusion protein was allowed to incubate with the immobilized ligand at 37° C. for one hour after which the plate was washed and assayed for binding of the fusion protein. Binding was detected by the addition of an immunodetection complex containing a monoclonal mouse anti-human IgG1 diluted 1:11,000 to a final assay concentration (FAC) of 21 ng/100 μL, a biotinylated goat anti-mouse IgG diluted 1:500, to a FAC of […], and an avidin-linked alkaline phosphatase. The complex was incubated with the immobilized fusion protein for one hour at room temperature after which the plate was washed and the alkaline phosphatase substrate para-nitrophenylphosphate (PNPP) was added. […]

B1: TTP-4000: four domain RAGE fusion protein (SEQ ID NO: 32): human RAGE amino acids 1-251 linked to CH2 and CH3 domains of human IgG (protein)
chain: MAAGTAVGAWALVLSLWGAVVGAQNITARIGEPLVLKCKGAPKKPPQRLEWKLNTGRTEAWKVLSPQGGGPWDSVARVLPNGSLFLPAVGIQDEGIFRCQAMNRNGKETKSNYRVRVYQIPGKPEIVDSASELTAGVPNKVGTCVSEGSYPAGTLSWHLDGKPLVPNEKGVSVKEQTRRHPETGLFTLQSELMVTPARGGDPRPTFSCSFSPGLPRHRALRTAPIQPRVWEPVPLEEVQLVVEPEGGAVAPPSVFLFPPKPKDTLMISRTPEVTCVVVDVSHEDPEVKFNWYVDGVEVHNAKTKPREEQYNSTYRVVSVLTVLHQDWLNGKEYKCKVSNKALPAPIEKTISKAKGQPREPQVYTLPPSRDELTKNQVSLTCLVKGFYPSDIAVEWESNGQPENNYKTTPPVLDSDGSFFLYSKLTVDKSRWQQGNVFSCSVMHEALHNHYTQKSLSLSPGK
[1]
  Relative Kds: match with established literature values
APP transgenic mice; data not shown
  inflammatory cytokines IL-1 and TNF-α: can reduce
APP transgenic mice; treated for 3 months, versus vehicle and human IgG1, FIG. 14A
  Aβ plaques in the brain: fewer Aβ plaques
APP transgenic mice; treated for 3 months, versus vehicle and human IgG1, FIG. 14B
  cognitive dysfunction (Morris water maze): less cognitive dysfunction
amyloid-beta (A-beta)
  inhibition of binding of TTP-4000 to immobilized amyloid-beta by the RAGE ligand: completely inhibited
